Laboratory results taken from patent US20210032313A1 (Daiichi Sankyo, published 2021).

T1: KLK12 (human, UniProt Q9UKR0)
T1 construct: commercial enzyme (R&D Systems, 3095-SE); 0.1 µg/mL in the assay; substrate Boc-Val-Pro-Arg-AMC 100 µM; also called Human KLK12; hKLK12
T1 sequence (protease, looked up): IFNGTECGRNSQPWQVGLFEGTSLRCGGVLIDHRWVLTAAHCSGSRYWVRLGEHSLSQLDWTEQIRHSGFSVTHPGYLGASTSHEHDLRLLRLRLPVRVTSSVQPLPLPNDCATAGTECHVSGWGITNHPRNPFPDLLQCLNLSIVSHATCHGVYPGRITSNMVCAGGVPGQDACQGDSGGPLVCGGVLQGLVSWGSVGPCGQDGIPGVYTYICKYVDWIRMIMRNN

T2: human KLK5 (human, UniProt Q9Y337 67-293)
T2 sequence: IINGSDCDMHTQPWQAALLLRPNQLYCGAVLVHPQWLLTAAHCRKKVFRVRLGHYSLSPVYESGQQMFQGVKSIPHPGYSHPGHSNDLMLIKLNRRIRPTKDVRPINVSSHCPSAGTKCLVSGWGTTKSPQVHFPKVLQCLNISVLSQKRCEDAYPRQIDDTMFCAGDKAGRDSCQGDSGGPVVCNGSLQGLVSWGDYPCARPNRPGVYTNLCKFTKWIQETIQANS

T3: human KLK14 (human, UniProt Q9P0G3 25-251)
T3 sequence: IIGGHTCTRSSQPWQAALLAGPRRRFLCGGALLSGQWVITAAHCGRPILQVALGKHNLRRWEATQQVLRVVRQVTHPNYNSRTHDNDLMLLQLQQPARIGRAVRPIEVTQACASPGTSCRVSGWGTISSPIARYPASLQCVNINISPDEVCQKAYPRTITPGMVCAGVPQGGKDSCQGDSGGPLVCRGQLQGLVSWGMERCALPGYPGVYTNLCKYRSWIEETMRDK

T4: mouse KLK14 (mouse, UniProt Q8CGR5 24-250)
T4 sequence: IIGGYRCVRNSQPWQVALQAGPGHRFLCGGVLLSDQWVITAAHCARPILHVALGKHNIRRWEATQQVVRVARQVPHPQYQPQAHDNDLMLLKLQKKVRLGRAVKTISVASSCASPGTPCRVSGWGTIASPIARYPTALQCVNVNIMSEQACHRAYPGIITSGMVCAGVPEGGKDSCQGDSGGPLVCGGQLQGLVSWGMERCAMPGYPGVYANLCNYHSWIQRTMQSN

T5: mouse KLK5 (mouse)
T5 chain: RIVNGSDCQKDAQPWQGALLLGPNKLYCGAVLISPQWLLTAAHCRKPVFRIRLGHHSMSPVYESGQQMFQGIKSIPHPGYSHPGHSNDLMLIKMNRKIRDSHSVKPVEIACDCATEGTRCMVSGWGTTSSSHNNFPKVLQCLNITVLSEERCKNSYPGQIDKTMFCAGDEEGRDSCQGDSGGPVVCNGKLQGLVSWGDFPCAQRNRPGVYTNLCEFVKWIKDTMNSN


Columns and labels:
KLK12 = molecular target: T1, KLK12; test: fluorogenic peptide substrate cleavage, 1 µM inhibitor
Method: FIG. 3G includes graphs to evaluate the cross-reactivity of each inhibitory peptide with proteases, using the degradation of a peptide substrate as an index. For evaluating the Human KLK7 inhibitory activity, hKLK7 with a final concentration of 1 μg/mL and a substrate peptide Mca-Arg-Pro-Lys-Pro-Val-Glu-Nval-Trp-Arg-Lys (Dnp)-NH₂ (R&D Systems, Inc., ES002) with a final concentration of 20 μM were used. For evaluating the Human KLK8 inhibitory activity, hKLK8 (UniProt: 060259, prepared by the inventors) with a final concentration of 5 nM and a substrate peptide Boc-Val-Pro-Arg-AMC (R&D Systems, Inc., ES011) with a final concentration of 100 μM were used. For evaluating the Human KLK12 inhibitory activity, hKLK12 (R&D Systems, Inc., 3095-SE) with a final concentration of 0.1 μg/mL and a substrate peptide Boc-Val-Pro-Arg-AMC (R&D Systems, Inc., ES011) with a final concentration of 100 μM were used.
(§1) The specificities for other proteases were evaluated using the degradation of a substrate peptide as an index. As in the method described in (3-1), 25 μL each of a protease and a sample diluted with an assay buffer were mixed (to a final concentration of sample of 1 μM), followed by a reaction at 37° C. for 20 minutes. Thereafter, 50 μL of a substrate diluted with an assay buffer was added thereto, and the fluorescence signal was measured using Enspire (PerkinElmer). An assay buffer (50 mM Tris, 150 mM NaCl, pH 8.0) was used for the evaluation of the protease activity, and a PROTEOSAVE® SS96F black plate (Sumitomo Bakelite Co., Ltd.) was used for the reaction and the measurement. The combinations of the protease and the substrate used for the evaluation of the specificity were as follows.

human KLK5 [1] = molecular target: T2, human KLK5; test: cell-based or functional assay
human KLK14 = molecular target: T3, human KLK14; test: cell-based or functional assay
human KLK5 [2] = molecular target: T2, human KLK5; test: SPR, BIAcore T200; biotinylated KLK5 captured on chip, peptide as analyte; single cycle kinetics, 1:1 model
Method: In order to measure the binding affinity of the KLK5 inhibitory peptides, surface plasmon resonance analysis was conducted using BIAcore T 200 (GE healthcare). A complementary strand of DNA of a streptavidin conjugate was captured by hybridization on Sensor Chip CAP (GE healthcare) on which single-stranded DNA immobilized. Next, KLK5 biotinylated using EZ-Link NHS-PEG4-Biotin (Thermo Fisher Scientific) was captured at a flow rate of 10 μL/min to immobilize about 10 RU. Thereafter, the KLK5 inhibitory peptide, serially diluted 2-fold with HBS-EP (0.625 to 10 nM), was added thereto as an analyte at a flow rate of 30 μL/min. In the BIAcore T 200 Evaluation software (version 2.0), kon and koff were calculated by analysis using Single cycle kinetics in a simple one-to-one Langmuir binding model. The dissociation constant KD was calculated as a ratio of koff/kₒₙ. Further, multiple KLK5 inhibitory peptides were measured by regenerating Sensor Chip CAP using a Regeneration buffer attached to a Biotin CAPture Kit (GE healthcare) and repeatedly capturing biotinylated KLK5.

KLK4 = molecular target: T6, KLK4 (human, UniProt Q9Y5K2); test: fluorogenic peptide substrate cleavage, 1 µM inhibitor
T6 construct: commercial enzyme (R&D Systems, 1719-SE); 1 µg/mL in the assay; substrate Boc-Val-Pro-Arg-AMC 100 µM; also called Human KLK4; hKLK4
T6 sequence (Q9Y5K2 31-254 limits assumed): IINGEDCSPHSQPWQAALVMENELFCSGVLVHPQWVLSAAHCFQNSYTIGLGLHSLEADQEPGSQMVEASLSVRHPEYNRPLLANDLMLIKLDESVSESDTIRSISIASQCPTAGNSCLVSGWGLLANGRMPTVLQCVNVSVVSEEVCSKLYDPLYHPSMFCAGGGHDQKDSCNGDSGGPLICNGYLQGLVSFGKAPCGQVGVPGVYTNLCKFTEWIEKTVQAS
Method: FIG. 3F includes graphs to evaluate the cross-reactivity of each inhibitory peptide with proteases, using the degradation of a peptide substrate as an index. For evaluating the Human KLK1 inhibitory activity, hKLK1 (R&D Systems, Inc., 2337-SE) with a final concentration of 0.1 μg/mL and a substrate peptide Pro-Phe-Arg-MCA (PEPTIDE […], INC., 3096-v) with a final concentration of 100 μM were used. For evaluating the Human KLK2 inhibitory activity, hKLK2 (R&D Systems, Inc., 4104-SE) with a final concentration of 2 μg/mL and a substrate peptide Pro-Phe-Arg-MCA (PEPTIDE […], INC., 3096-v) with a final concentration of 100 μM were used. For evaluating the Human KLK4 inhibitory activity, hKLK4 (R&D Systems, Inc., 1719-SE) with a final concentration of 1 μg/mL and a substrate peptide Boc-Val-Pro-Arg-AMC (R&D Systems, Inc., ES011) with a final concentration of 100 μM were used.
as §1

mouse KLK7 = mouse KLK7 (mouse, UniProt Q91VE3 26-249); test: cell-based or functional assay
mouse KLK7, sequence (Q91VE3 26-249): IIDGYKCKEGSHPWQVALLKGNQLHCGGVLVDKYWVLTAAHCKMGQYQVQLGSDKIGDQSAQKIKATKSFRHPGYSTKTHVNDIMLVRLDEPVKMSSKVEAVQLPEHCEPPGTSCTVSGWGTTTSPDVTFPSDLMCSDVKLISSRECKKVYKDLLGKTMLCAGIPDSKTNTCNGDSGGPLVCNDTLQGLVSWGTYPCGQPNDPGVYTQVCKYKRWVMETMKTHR

mouse KLK14 = molecular target: T4, mouse KLK14; test: cell-based or functional assay
mouse KLK5 = molecular target: T5, mouse KLK5; test: cell-based or functional assay
human KLK7 = human KLK7 (human, UniProt P49862 30-253); test: cell-based or functional assay
human KLK7, sequence (P49862 30-253): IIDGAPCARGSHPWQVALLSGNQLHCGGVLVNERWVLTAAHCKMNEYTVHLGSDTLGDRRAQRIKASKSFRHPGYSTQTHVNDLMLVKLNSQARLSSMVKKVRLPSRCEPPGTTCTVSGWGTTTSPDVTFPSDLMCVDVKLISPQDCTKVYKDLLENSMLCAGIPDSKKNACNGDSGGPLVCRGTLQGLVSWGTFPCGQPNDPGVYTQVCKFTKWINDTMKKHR

bChymotrypsin = test: fluorogenic peptide substrate cleavage, 1 µM inhibitor
Method: FIG. 3A includes graphs to evaluate the cross-reactivity of each inhibitory peptide with proteases, using the degradation of a peptide substrate as an index. For evaluating the Bovine trypsin inhibitory activity, trypsin (Pierce, 20233) with a final concentration of 5 nM and a substrate peptide Boc-Val-Pro-Arg-AMC (R&D Systems, Inc., ES011) with a final concentration of 100 μM were used. For evaluating the Human trypsin inhibitory activity, trypsin (Sigma-Aldrich Co. LLC, T6424) with a final concentration of 1 nM and a substrate peptide Boc-Val-Pro-Arg-AMC (R&D Systems, Inc., ES011) with a final concentration of 100 μM were used. For evaluating the Bovine α-chymotrypsin inhibitory activity, chymotrypsin (Worthington Biochemical Corporation, LS001434) with a final concentration of 10 nM and a substrate peptide Suc-Leu-Leu-Val-Tyr-MCA (PEPTIDE […], INC., 3120-v) with a final concentration of 100 μM were used.
as §1

| Binder | binding result (KLK12) | IC50(nM) for hKLK5 (human KLK5 [1]) | IC50(nM) for hKLK14 (human KLK14) | Kd (human KLK5 [2]) | koff (human KLK5 [2]) | kon (human KLK5 [2]) | binding result (KLK4) | IC50(nM) for mKLK7 (mouse KLK7) | IC50(nM) for mKLK14 (mouse KLK14) | IC50(nM) for mKLK5 (mouse KLK5) | IC50(nM) for hKLK7 (human KLK7) | binding result (bChymotrypsin) |
| --- | --- | --- | --- | --- | --- | --- | --- | --- | --- | --- | --- | --- |
| KLK5 inhibitory peptide K50098 (SPINK2 mutant peptide made in E. coli) GPQFGLFSKYRTPNCTSQTLGSCSREYDPVCGSDMSTYANECTLCMKIREGGHNIKIIRNGPCGG | binds | 8.3 nM | 268 nM | 0.018 nM | 1.8e-05 s⁻¹ | 1e+06 M⁻¹ s⁻¹ | binds | > 1000 nM | 547 nM | 14 nM |  |  |
| KLK5 inhibitory peptide K50016 (SPINK2 mutant peptide made in E. coli) GPQFGLFSKYRTPNCSQWQYSSCDRVYDPVCGSDMSTYANECTLCMKIREGGHNIKIIRNGPCGG |  | 6.9 nM |  | 0.042 nM | 0.00029 s⁻¹ | 7e+06 M⁻¹ s⁻¹ | binds | > 1000 nM | > 1000 nM | 15 nM |  |  |
| KLK5 inhibitory peptide K51090 (SPINK2 mutant peptide made in E. coli) GPQFGLFSKYRTPNCDEIGKYGCGRSYDPVCGSDMSTYANECTLCMKIREGGHNIKIIRNGPCGG |  | 4.5 nM | > 1000 nM | 0.027 nM | 5.7e-05 s⁻¹ | 2.1e+06 M⁻¹ s⁻¹ | binds | 658 nM | > 1000 nM | 2 nM | > 1000 nM |  |
| KLK5/KLK7 inhibitory peptide K51028 (SPINK2 mutant peptide made in E. coli) GPQFGLFSKYRTPNCYQYRSKGCTHEYDPVCGSDMSTYANECTLCMKIREGGHNIKIIRNGPCGG |  | 6.1 nM |  | 0.014 nM | 2e-05 s⁻¹ | 1.5e+06 M⁻¹ s⁻¹ |  | 77 nM | > 1000 nM | < 0.5 nM | 249 nM |  |

The remaining lines, values ahead:

| binding result (KLK12) | IC50(nM) for hKLK5 (human KLK5 [1]) | IC50(nM) for hKLK14 (human KLK14) | Kd (human KLK5 [2]) | koff (human KLK5 [2]) | kon (human KLK5 [2]) | binding result (KLK4) | IC50(nM) for mKLK7 (mouse KLK7) | IC50(nM) for mKLK14 (mouse KLK14) | IC50(nM) for mKLK5 (mouse KLK5) | IC50(nM) for hKLK7 (human KLK7) | binding result (bChymotrypsin) | Binder |
| --- | --- | --- | --- | --- | --- | --- | --- | --- | --- | --- | --- | --- |
| binds | 7.1 nM |  | 0.13 nM | 0.00027 s⁻¹ | 2e+06 M⁻¹ s⁻¹ |  | > 1000 nM | > 1000 nM | 127 nM |  |  | KLK5 inhibitory peptide K50032 (SPINK2 mutant peptide made in E. coli) GPQFGLFSKYRTPNCLNWTDHQCERDYDPVCGSDMSTYANECTLCMKIREGGHNIKIIRNGPCGG |
| binds | 7 nM | 434 nM | 0.026 nM | 2.2e-05 s⁻¹ | 840000 M⁻¹ s⁻¹ | binds | 512 nM | > 1000 nM | 2 nM |  |  | KLK5 inhibitory peptide K51072 (SPINK2 mutant peptide made in E. coli) GPQFGLFSKYRTPNCQEDMTEYCARDFDPVCGSDMSTYANECTLCMKIREGGHNIKIIRNGPCGG |
| binds | 6.7 nM | > 1000 nM | 0.019 nM | 1.8e-05 s⁻¹ | 980000 M⁻¹ s⁻¹ | binds | > 1000 nM | > 1000 nM | < 0.5 nM |  |  | KLK5 inhibitory peptide K50055 (SPINK2 mutant peptide made in E. coli) GPQFGLFSKYRTPNCANTMKQDCTREYDPVCGSDMSTYANECTLCMKIREGGHNIKIIRNGPCGG |
|  | 5.8 nM |  | 0.34 nM | 0.0012 s⁻¹ | 3.5e+06 M⁻¹ s⁻¹ | binds | 23 nM | 214 nM | 48 nM | 17 nM | binds | KLK5/KLK7 inhibitory peptide K51005 (SPINK2 mutant peptide made in E. coli) GPQFGLFSKYRTPNCMQHARQGCHYDYDPVCGSDMSTYANECTLCMKIREGGHNIKIIRNGPCGG |
